Values of other authors as cited in PMC4321732.

What was measured:
[1] = target: p53K382me2 (Homo sapiens) (UniProt P04637)
[2] = target: Histone H4K20me2 (Homo sapiens) (UniProt P62805)
[3] = target: p53K370me2 (Homo sapiens) (UniProt P04637)
Chain of p53K370me2 (Homo sapiens) (P04637 whole entry): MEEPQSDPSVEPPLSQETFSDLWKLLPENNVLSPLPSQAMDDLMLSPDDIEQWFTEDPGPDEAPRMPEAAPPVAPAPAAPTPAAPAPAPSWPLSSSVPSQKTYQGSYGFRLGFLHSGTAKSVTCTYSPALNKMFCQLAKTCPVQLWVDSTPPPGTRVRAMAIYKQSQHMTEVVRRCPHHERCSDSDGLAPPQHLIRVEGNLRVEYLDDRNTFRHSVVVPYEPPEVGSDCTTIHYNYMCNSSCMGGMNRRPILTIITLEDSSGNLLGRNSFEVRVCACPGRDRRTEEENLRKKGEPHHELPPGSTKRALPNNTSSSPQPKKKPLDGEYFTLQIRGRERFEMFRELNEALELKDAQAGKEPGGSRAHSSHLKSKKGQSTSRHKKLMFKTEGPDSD

Chain of 53BP1 TTD tandem Tudor domain (Q12888 1484-1603): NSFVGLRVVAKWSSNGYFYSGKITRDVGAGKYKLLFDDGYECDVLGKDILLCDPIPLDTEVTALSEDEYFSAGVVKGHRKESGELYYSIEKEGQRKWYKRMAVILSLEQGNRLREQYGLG
Chain of p53K382me2 (Homo sapiens) (P04637 whole entry): as the sequence (P04637 whole entry) above

53BP1 TTD tandem Tudor domain (from UniProt Q12888)
Kd [1]: 0.9 µM | Kd [2]: 1.3 µM | Kd [3]: 20 µM
